# Assay results taken from the nanobody polyreactivity screen of Harvey et al. (2022).
# Test: yeast display, Sf9 membrane polyspecificity reagent, FACS + sequencing; frameworks hold sequencing errors
# How it was run: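 Polyreactivity labels are assigned by the sorting gate from which each nanobody was recovered. The gates were low and high (top ~1%), set on anti-HA fluorescence for expression and streptavidin fluorescence for reagent binding. Before sorting, galactose-induced (36–48 hours) yeast display cells were stained for 1 hour at 4 °C with 10% biotinylated, detergent-solubilized Sf9 membrane reagent.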
row,Sequence,polyreactivity (PSR sort gate)
1,QVQLVESGGGLVQAGGSLRLSCAASGSIFDDYAMGWYRQAAGKERELVAAITWNGGSTYADSVKGRFTISRDYAKNTVYLQMHSLKPEDTAVYYCNRGGAFNTRNEITRYGYWGQGTQVTVSS,low polyreactivity
2,QVQLVESGGGLVQAGGSLRLSCAASGSIFDDYAMGWYRQAPGKEREFVADISYNGGTTYSADSVKGRFTISRDNAKNTVYLQMNSLKPEDTAVYYCAADRTNYTYYLPYDYWGPGTQVTVSS,low polyreactivity
3,QVQLVESGGGLVQAGGSLRLSCAASGSIFDDYAMGWYRQAPGKERELVAAISWSGGSTYYADSVKGRFTISRDNAKNTVYLQMNSLKPEDTAVYYCAAYDYDYLYGEYYWGQGTQVTVSS,low polyreactivity
4,QVQLVESGGGLVQAGGSLRLSCAASGSIFDDYAMGWYRQAPGKERELVAAITSGGSTYYADSVKGRFTISRDNAKNTVYLQMNSLKPEDTAVYYCAAPENKSDEYDYWGQGTQVTVSS,low polyreactivity
5,QVQLVESGGGLVQAGGSLRLSCAASGSIFDDYAMGWYRQAPGKERELVATITSGDTTNYADSVKGRFTISRDNAKNTVYLQMNSLKPEDTAVYYCAADYLTSRSRTFDYWGQGTQVTVSS,low polyreactivity
6,QVQLVESGGGLVQAGGSLRLSCAASGSIFDENAMGWYIQAPGKERELVAAITGSGVRTYYADSVKGRFTISRDNAKTTVYLQMNSLKPEDTAVYYCAAETLGVYDYESYTYYWGQRTQVTVSS,high polyreactivity
7,QVQLVESGGGLVQAGGSLRLSCAASGSIFDEYAMGWYRQAPGKERELVAVISTSGSTYYADSVKGRFTISRDNAKNPVYLQMNCLKPEDTGVYSSNAAIYTSSYRSYDYWGQGTQVTVTS,low polyreactivity
8,QVQLVESGGGLVQAGGSLRLSCAASGSIFDFNAMGWYRQAPGKERELVAAIDDIDDSTYYSDSVKGRFTISRDNAKNTVYLQMNSLKPEDTAVYYCAAELRPGYRSSYGLIYDYWGQGTQVTVSS,low polyreactivity
9,QVQLVESGGGLVQAGGSLRLSCAASGSIFDFYAMGWYRQAPGKERELVAAISGSGGSTYYADSVKGRFTISRDNAKNTVYLQMNSLKPEDTAVYYCSYYYWGQGTQVTVSS,low polyreactivity
10,QVQLVESGGGLVQAGGSLRLSCAASGSIFDFYAMGWYRQAPGKVRELVAAITSGSNTYYADSVKGRFTISRDNAKNTVYLQMNSLKPEDTAVYYCAARRRIYRSMGYWGQGTQVTVSS,low polyreactivity
11,QVQLVESGGGLVQAGGSLRLSCAASGSIFDGNALGWYRQAPGKERELVAAISYRGGSTYYADSVKGRFTISRDNAKNTVYLQMNSLKPEDTAVYYCAAGSISTPGRGVDKPDPYDYWGQGTQVTVSS,low polyreactivity
12,QVQLVESGGGLVQAGGSLRLSCAASGSIFDGNAMGWYRQAPGKERELVAAITNSGGSTYYADSVKGRFTISRDNAKNTVYLQMNSLKPEDTAVYYCNALPFAWRRYRWVRTMYYWGQGTQVTVSS,low polyreactivity
13,QVQLVESGGGLVQAGGSLRLSCAASGSIFDGSAMGWYRQAPGKERELVASISSGGSTNYADSVKGRFTISRDNAKNTVYLQMNSMKPEDTAVYYCAAEWVWYKWEFEYWGQGTQVSVSS,high polyreactivity
14,QVQLVESGGGLVQAGGSLRLSCAASGSIFDGYALGWYRQAPGKEREFVAAIDTGDTRTYYADSVKGRFTISRDNAKNTVYLQMNSLKPEDTAVYYCNADDWAYGMDYWGQGTQVTVSS,low polyreactivity
15,QVQLVESGGGLVQAGGSLRLSCAASGSIFDGYAMGWYRQAPGKERELVAAISQRGGSTYYADSVKGRFTISRDNAKNTVYLQMNSLKPEDTAVYYCAADSSYGTREYWGQGTQVTVSS,low polyreactivity
16,QVQLVESGGGLVQAGGSLRLSCAASGSIFDGYAMGWYRQAPGKERELVAAISSGGSTYYADSVKGRFTISRDNAKNTVYLQMNSLKPEDTAVYYCNRVRRRVSTSIYNYWGQGTQVTVSS,high polyreactivity
17,QVQLVESGGGLVQAGGSLRLSCAASGSIFDGYAMGWYRQAPGKERELVAAISSSGVTTYYADSVKGRFTISRDNAKNTVYLQMNSLKPEDTAVYYCATYSYTWLNYYWGQGTQVTVSS,high polyreactivity
18,QVQLVESGGGLVQAGGSLRLSCAASGSIFDLNAMGWYRQAPGKERELVAAISKSGGSTYYADSVKGRFTISRDNAKNTVYLQMISLKPEDSAVYYCAARYHYPGNWYNYWGQGTQVTVSS,low polyreactivity
19,QVQLVESGGGLVQAGGSLRLSCAASGSIFDLNAMGWYRQAPGKERELVAAISSGGGTYYADSVKGRFTISRDNAKNTVYFQMNSLKPEDTAVYYCNRVTRWTYNYWGQGTQVTVSS,high polyreactivity
20,QVQLVESGGGLVQAGGSLRLSCAASGSIFDLYTMGWYRQAPGTERELVAAISRSGGSTYYADSVKGRFTISRDNAKNTVYLQMNSLKPEDTAVYYCAARGPYRPPHGDAYYTYGYWGQGTQVTVSS,high polyreactivity
21,QVQLVESGGGLVQAGGSLRLSCAASGSIFDPNAMGWYRQAPGKERELVAAINSGGSTDYADSVKGRFTISRDNAKNTVYLQMNSLKPEDTAVYYCNAEYGYSGVGDDYWGQGTQVTVSS,low polyreactivity
22,QVQLVESGGGLVQAGGSLRLSCAASGSIFDPYAMGWYRQAPGKETELDAAITASGSSTYYADSVKGRFTISRDNAKNTVYLQMNSLKPEDTAVYYCAADRANWEYLLSWLGYDYWGQGTQVTVSS,low polyreactivity

row,Sequence,polyreactivity (PSR sort gate)
1,QVQLVESGGGLVQAGGSLRLSCAASGSIFDRYDMGWYRQAPGKERELVAAISTGGSTNYADSVKGRFTISRDNAKNTVYLHMNSLKPEDTAVYYCADRYLYRMYYWGQCTQVTVSS,low polyreactivity
2,QVQLVESGGGLVQAGGSLRLSCAASGSIFDSNAMGRYRQAPGKERELVAAISLSGGSTYYADSVKGRFTISRDNAKNTVYLQMNSLKPVDTAVYYCAKDGWYEYYWGQGTQVTVSS,low polyreactivity
3,QVQLVESGGGLVQAGGSLRLSCAASGSIFDSNAMGWYRQAPGKETELVASITSDGDTYYADSVKGRFTISRDNAKNTVYLQIKSVKPEDTAVYYCAAYVPYSGLDYWGQGTQVTVSS,low polyreactivity
4,QVQLVESGGGLVQAGGSLRLSCAASGSIFDSNTMGWYRQAPRKERELVAAITGTGTSTYYADSVKGRFTISRDNAKNTVYLQMNSLKPEDTAVYYCAADLEYKTWWYDYWGQGTQVTVSS,low polyreactivity
5,QVQLVESGGGLVQAGGSLRLSCAASGSIFDSYAMGWYRQAPGKERELVADITSDGSTHYADSVKGRFTISRDNAKNTVYLQMNSLKAEDTAVYYCAADYFFYWLGVPVVDVYYWGQGTQVTVSS,low polyreactivity
6,QVQLVESGGGLVQAGGSLRLSCAASGSIFDSYDRGWYREAPGKERELVAAITSGGSTNYADSVKGRFTISRDNAKNTVYLQMNSLKPEDTAVYYCAAYYWYPVYYGYDYGGQGTQVTVSS,low polyreactivity
7,QVQLVESGGGLVQAGGSLRLSCAASGSIFDSYTMGWYRQAPGKERELVATINRSGGSTYYADSVKGRFTISRDNAKNTVYLQMNSLKPEDTAVYYCANVYPYTPYSSWRSKYDYWGQGTQVTVSS,low polyreactivity
8,QVQLVESGGGLVQAGGSLRLSCAASGSIFDTNAMRWYRQAPGKERELVAAISFSGVRTYYEDSVKGRFTISRYNAKNTVSLQMYSLKPEDTAVYYCAAESGKYLESRYRYYTRYYYWGQGTEVTVSS,high polyreactivity
9,QVQLVESGGGLVQAGGSLRLSCAASGSIFDTYAMGWYRQAPGKEREFVAAISGTDGSTYYADSVKGRFTISRDNAKNTVYLQMNSLKPEDTAVYYCNAEPPRGDTVSSGGEMDYWGQGTQVTVSS,low polyreactivity
10,QVQLVESGGGLVQAGGSLRLSCAASGSIFDTYAMGWYRQAPGKEREFVAAISRNGGSTYYADSVKGRFTISRDNAKNTVYLQMNSLKAEDTAVYYCATDKRHKFDYWGQGTQVTVSS,low polyreactivity
11,QVQLVESGGGLVQAGGSLRLSCAASGSIFDTYAMGWYRQAPGKERELVAAISSGGRTYYADSVKGRFSISRDNAKNTVYLQMNSLKPEDTAVYYCAVRPRPGYYYWGQGTQVSVSS,high polyreactivity
12,QVQLVESGGGLVQAGGSLRLSCAASGSIFDTYAMGWYRQAPGKERELVAAITQSGDRTYYADSVKGRFTISRDNAKNTVYLQMNSLKPEDTAVYYCYTRRGSAWSCDYWGQGTQVTVSS,low polyreactivity
13,QVQLVESGGGLVQAGGSLRLSCAASGSIFDTYAMGWYRQAPGKERELVAAITRRAGSTYYADSVKGRFTISRDNAKNTVYLQMNSLKPEDTPVYYGAAGYDRYPGVIDEYWGQGTEVTVSS,low polyreactivity
14,QVQLVESGGGLVQAGGSLRLSCAASGSIFDTYAMGWYRQAPGKERELVAAITWSGSSTYYADSVKGRFTISRDNSKNTVYLQMNSLKPEDTAVYYCAKDYYREVTTEYDYWGQGTQVTVSS,high polyreactivity
15,QVQLVESGGGLVQAGGSLRLSCAASGSIFDTYTMGWYRQAPGKERELVAAITSGTTTTYADSVKGRFTISRDNAKNTVYLQMNSLKPEDTAVYYCAARTSGSFDYCGQGTQVTVSS,low polyreactivity
16,QVQLVESGGGLVQAGGSLRLSCAASGSIFDVNAMGWSRQPPGKERELVAVISSSDSTDYADSVKGRFTISRDNAKNTVYLQMNSLKPEDTAVYYCAADEYQDRPDDYWGQGTQVTVSS,low polyreactivity
17,QVQLVESGGGLVQAGGSLRLSCAASGSIFDVNAMGWYRQAPGKQRELVAAISDSGGSTYYADSVKGRFTISRDNAKNTVYLQMNSLKPEDTAVYYCNADWSWYNYYDFDYWGQGTQVTVSS,low polyreactivity
18,QVQLVESGGGLVQAGGSLRLSCAASGSIFDVYTMGWYRQAPGKERELVAAINTGGGSTYYADSVKGRFTISRDNAKNTVYLQMNSLKPEETAVYYCAASVYHYGPLYYWGQGTQVTVSS,low polyreactivity
19,QVQLVESGGGLVQAGGSLRLSCAASGSIFDWNALGWYRQAPGKERELVASITGSGGGTNYADSLKGRFTISRDNAKNTVYFQMNSLNPEDTAVYFCNADGLNLDGHEYWGQATQVTVSS,low polyreactivity
20,QVQLVESGGGLVQAGGSLRLSCAASGSIFDWYAIGWYRQAPGKEGELVAAISSGDSTYYADSVKGRFTISRDNAKNTVVLQMNSLKAEETSVSDCAAVTKLSGIRYNYWGQGSQVTVSS,low polyreactivity
21,QVQLVESGGGLVQAGGSLRLSCAASGSIFDWYAMGWYRQAPGKEGELVAAISSGDSTYYADSVKGRFTISRDNAKKTVYLQMNSLKPEDTAVYYCAAVTKLSGIRYNYWGQGTQVTVSS,low polyreactivity
